Results on two molecules are retold here after patent publication US20250164487, “METHOD FOR […] ANALYTE USING POLYNUCLEOTIDE” (NATIONAL UNIVERSITY CORPORATION TOKYO UNIVERSITY OF …, published 2025).

For one data set, the target named is BSA (UniProt P02769 P02769:25-607).
In data set [1] the target is T1, SARS-CoV-2 spike protein receptor-binding domain (RBD) (SARS-CoV-2, UniProt P0DTC2 P0DTC2:319-541). Put plainly: […]; PBS pH 7.4, room temperature.
The target of data set [2] is T1, SARS-CoV-2 spike protein ….

A word on the Kd: it is the equilibrium constant for the complex coming apart.

Sequence of BSA (P02769 25-607, one chain of several): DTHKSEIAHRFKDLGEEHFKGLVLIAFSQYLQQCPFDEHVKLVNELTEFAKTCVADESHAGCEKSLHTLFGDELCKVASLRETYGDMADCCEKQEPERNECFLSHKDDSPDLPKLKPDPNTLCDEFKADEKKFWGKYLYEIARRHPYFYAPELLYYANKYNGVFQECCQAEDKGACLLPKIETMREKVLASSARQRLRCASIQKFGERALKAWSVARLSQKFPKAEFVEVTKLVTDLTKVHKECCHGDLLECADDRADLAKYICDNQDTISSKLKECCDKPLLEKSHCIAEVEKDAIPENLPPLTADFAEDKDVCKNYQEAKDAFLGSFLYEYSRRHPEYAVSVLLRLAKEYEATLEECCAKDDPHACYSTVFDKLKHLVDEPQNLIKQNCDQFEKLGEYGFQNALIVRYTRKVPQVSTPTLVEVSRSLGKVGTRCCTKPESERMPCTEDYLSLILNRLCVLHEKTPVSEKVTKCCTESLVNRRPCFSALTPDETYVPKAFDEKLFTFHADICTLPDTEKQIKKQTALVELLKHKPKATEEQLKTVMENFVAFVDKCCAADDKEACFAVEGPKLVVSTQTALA

Regarding GGGGCTGCTCGGGATTGCGGATATGG (ssDNA) [RBD-46], the binding result in the data set with BSA is “no binding”. Besides, in data set [1], the Kd amounted to 34.7 nM.
As to AGGGGCTGCTCGGGATTGCGGATATGGA (ssDNA) [RBD-45], the binding result in data set [2] was “binds”.
